Two molecules from US20190135895A1 (published 2019) can be followed below.

Assay [1] addresses truncated monomeric His-tagged human FcRn (human) (UniProt P55899). The experiment in a line: SPR (BIAcore 3000), hFcRn injected over immobilized HSA-GST variant, pH 6.0, 1:1 Langmuir model.
Another assay deals with T1, WT HSA-GST (human, UniProt P08515 1-218 = GST).
T1 construct: Secreted from HEK293E cells; also called WT-GST; WT HSA fusion
Description: ELISA, mFcRn captured on rabbit IgG, pH 6.0.

As a reminder, the Kd is the equilibrium constant for the complex coming apart.

truncated monomeric His-tagged human FcRn (human), sequence (P55899 24-297 limits assumed, chain 1 of 2): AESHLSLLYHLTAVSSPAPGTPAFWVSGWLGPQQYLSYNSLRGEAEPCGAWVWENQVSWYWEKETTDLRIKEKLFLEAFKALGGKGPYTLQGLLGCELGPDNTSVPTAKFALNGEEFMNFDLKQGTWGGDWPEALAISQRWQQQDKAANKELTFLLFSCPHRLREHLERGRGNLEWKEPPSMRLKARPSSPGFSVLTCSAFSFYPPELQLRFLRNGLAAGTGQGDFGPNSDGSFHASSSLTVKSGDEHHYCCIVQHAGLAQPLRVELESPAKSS
truncated monomeric His-tagged human FcRn (human), sequence (chain, as listed by the source limits assumed, chain 2 of 2): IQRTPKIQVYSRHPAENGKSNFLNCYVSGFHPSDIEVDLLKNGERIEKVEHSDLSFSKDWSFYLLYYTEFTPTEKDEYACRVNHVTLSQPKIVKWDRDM

In assay [1], “HSA E505Q-GST (from UniProt P08515 1-218)” returned a Kd of 23.1 nM.

B1: truncated monomeric His-tagged mouse FcRn (receptor)
chain 1: SETRPPLMYHLTAVSNPSTGLPSFWATGWLGPQQYLTYNSLRQEADPCGAWMWENQVSWYWEKETTDLKSKEQLFLEALKTLEKILNGTYTLQGLLGCELASDNSSVPTAVFALNGEEFMKFNPRIGNWTGEWPETEIVANLWMKQPDAARKESEFLLNSCPERLLGHLERGRRNLEWKEPPSMRLKARPGNSGSSVLTCAAFSFYPPELKFRFLRNGLASGSGNCSTGPNGDGSFHAWSLLEVKRGDEHHYQCQVEHEGLAQPLTVDLDSSARSS
chain 2: IQKTPQIQVYSRHPPENGKPNILNCYVTQFHPPHIEIQMLKNGKKIPKVEMSDMSFSKDWSFYILAHTEFTPTETDTYACRVKHASMAEPKTVYWDRDM
notes: extracellular domain; Made in a Baculovirus system; also called mFcRn; soluble mFcRn; not shown: His tag
Take B1: the binding result with WT HSA-GST is given as “no binding”.
